In assay [1] the target is full-length human Notch3 receptor expressed on cells (human) (UniProt Q9UM47). Briefly: cell-based or functional assay.
For assay [2], the target named is human Notch1-LD/Fc (LIN/dimerization domain fused to Fc region at the carboxyl terminus) (human) (UniProt P46531). Briefly: ELISA on coated Notch1-LD/Fc. For orientation: In an ELISA, binding on a coated surface is turned into a signal by an enzyme label.
The target of assay [3] is Notch3-LD/Fc fusion protein (Notch3 LIN12/dimerization domain fused to human gamma 1 Fc) (human) (UniProt Q9UM47). Briefly: ELISA on coated Notch3-LD/Fc.

Chain of UniProt P46531 (P46531 1440-1735 limits assumed, form in doubt): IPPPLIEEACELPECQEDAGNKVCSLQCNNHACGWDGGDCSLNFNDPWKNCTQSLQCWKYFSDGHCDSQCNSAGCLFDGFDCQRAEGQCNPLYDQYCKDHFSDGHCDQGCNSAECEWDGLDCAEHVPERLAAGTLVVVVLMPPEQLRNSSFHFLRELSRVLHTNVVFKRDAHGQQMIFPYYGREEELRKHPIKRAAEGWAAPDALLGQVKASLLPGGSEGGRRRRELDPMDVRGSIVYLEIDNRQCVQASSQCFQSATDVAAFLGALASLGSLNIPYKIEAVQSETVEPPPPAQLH

Substance “human Jagged2 expressed on 293 cells (Jagged2/293F) (from UniProt Q9Y219 24-1238) (ligand)” displayed a luciferase activity (CBF1-Luc reporter) of NC85 cells cocultured with Jagged2/293F, against coculture with PCDNA 3.1/293T in assay [1] of 2 to 4 fold.

In assay [1], “human Jagged1 expressed on 293T cells (Jagged1/293T) (from UniProt P78504 34-1218) (ligand)” gave a luciferase activity (CBF1-Luc reporter) of NC85 cells cocultured with Jagged1/293T, against coculture with PCDNA 3.1/293T of 2 to 4 fold.

For the substance “Control IgG1 (irrelevant IgG1 monoclonal antibody)”, the ELISA OD reading (mean) in assay [2] amounted to 0.066 OD 450 nm; in assay [3] it was 0.064 OD 450 nm.

The values above are taken from patent US20110223155A1.
